# Test results from US20030148283.
# Target: T1, Tma endonuclease V H116A H116A (Thermotoga maritima) (UniProt Q9X2H9)
# T1 sequence: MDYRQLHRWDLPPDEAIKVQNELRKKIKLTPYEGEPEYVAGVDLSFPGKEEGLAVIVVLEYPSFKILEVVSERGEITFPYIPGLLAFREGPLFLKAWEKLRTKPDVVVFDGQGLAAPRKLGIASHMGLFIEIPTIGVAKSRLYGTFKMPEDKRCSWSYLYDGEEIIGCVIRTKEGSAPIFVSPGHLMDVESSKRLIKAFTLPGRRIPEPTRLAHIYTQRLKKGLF
# Experiment: EMSA
# Conditions: deoxyinosine; MgCl2; bound about half as tightly as wt
substance,measurement,value
nicked I/A product,binding signal,0.5 fold of wt
